Test [1] concerns the target human full-length ELMO1 (ELMO1^FL, residues 1-727) (human, UniProt Q92556 1-727). As to the kind of experiment: cryo-EM structure; DOCK5^ΔC/ELMO1^FL/Rac1^G15A (0.9 μM) mixed with RhoG^Q61L (15 μM), cross-linked with 1 mM BS3, SEC; 20 mM HEPES-NaOH pH 8.0, 300 mM NaCl, 1 mM TCEP, 0.06% digitonin. The note with it: both partners purified.
In test [2] the target is C-terminal truncated DOCK5 (DOCK5^ΔC, residues 1-1642) (human, UniProt Q9H7D0 1-1642). Described as above. The note with it: both partners purified.

B1: constitutively active RhoG^Q61L mutant (GTPase domain, residues 1-184) (domain or fragment)
chain: not shown
Turning to B1, the binding result in test [1] and in test [2] was “binds” each time.

These data come from article PMC11267001, “RhoG facilitates a conformational transition in the guanine nucleotide exchange factor complex DOCK5/ELMO1 to an open state” (The Journal of Biological Chemistry, 2024).
